Here are results for 1 substance from patent publication US20240164355.

The series addresses Ubiquitin-AMC (Ub-AMC) (UniProt P0CG48).

Consider CidB* (CidB-C1025A catalytic mutant), for which the Ub-AMC hydrolysis result was “The CidB-C1025A catalytic mutant was inactive against Ub-AMC (data not shown)”.
